Consider four molecules from article PMC5659314 (Journal of immunology (Baltimore, Md. : 1950), 2017).

By Kd is commonly meant a measure of binding affinity in units of concentration.

One assay has as its target mouse DR3.Fc (mouse). The experiment in a line: SPR. For orientation: Surface plasmon resonance follows binding to a sensor surface in real time, without labels.
A further assay deals with T1, human TL1A (human, UniProt O95150 72-251).
T1 sequence (looked up): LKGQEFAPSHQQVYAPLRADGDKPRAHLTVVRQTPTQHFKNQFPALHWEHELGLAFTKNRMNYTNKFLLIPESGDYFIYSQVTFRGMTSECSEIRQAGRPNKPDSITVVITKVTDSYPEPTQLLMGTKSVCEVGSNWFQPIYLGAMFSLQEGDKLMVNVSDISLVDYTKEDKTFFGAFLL
The experiment in a line: ELISA.

For assay [1], the target named is recombinant human Galectin-9 (human, UniProt O00182 1-355). The experiment in a line: SPR.
Assay [2] has as its target recombinant mouse Galectin-9 (mouse, UniProt O08573 1-353). Briefly: SPR.

Chain of recombinant human Galectin-9 (human, UniProt O00182 1-355) (O00182 whole entry): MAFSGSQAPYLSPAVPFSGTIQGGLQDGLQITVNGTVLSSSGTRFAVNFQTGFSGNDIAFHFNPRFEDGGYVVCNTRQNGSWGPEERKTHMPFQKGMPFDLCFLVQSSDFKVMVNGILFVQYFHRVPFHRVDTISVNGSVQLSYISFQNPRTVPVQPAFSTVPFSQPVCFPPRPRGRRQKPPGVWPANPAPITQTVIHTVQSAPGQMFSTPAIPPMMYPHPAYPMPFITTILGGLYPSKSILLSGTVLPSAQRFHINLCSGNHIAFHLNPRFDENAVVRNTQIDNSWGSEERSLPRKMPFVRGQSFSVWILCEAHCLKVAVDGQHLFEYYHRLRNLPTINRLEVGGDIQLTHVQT
Chain of recombinant mouse Galectin-9 (mouse, UniProt O08573 1-353) (O08573 whole entry): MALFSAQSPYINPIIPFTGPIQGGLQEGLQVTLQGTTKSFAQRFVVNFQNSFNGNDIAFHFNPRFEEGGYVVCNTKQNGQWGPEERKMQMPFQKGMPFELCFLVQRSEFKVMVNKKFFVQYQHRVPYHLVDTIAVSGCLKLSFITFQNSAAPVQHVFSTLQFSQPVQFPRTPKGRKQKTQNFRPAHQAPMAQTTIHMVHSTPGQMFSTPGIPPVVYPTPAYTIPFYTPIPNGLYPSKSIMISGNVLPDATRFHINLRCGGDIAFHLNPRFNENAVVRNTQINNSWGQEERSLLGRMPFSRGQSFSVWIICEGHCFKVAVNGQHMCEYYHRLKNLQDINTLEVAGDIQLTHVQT

In the assay with mouse DR3.Fc (mouse), “recombinant mouse Galectin-9 (from UniProt O08573 1-353) (natural protein)” returned a Kd of 360 nM. In the assay with mouse DR3.Fc (mouse), “recombinant human Galectin-9 (from UniProt O00182 1-355) (natural protein)” registered a Kd of 180 nM.

B1: human DR3.Fc (fusion protein containing the extracellular region of human DR3) (Fc fusion, UniProt Q93038 25-199, looked up)
chain: QGGTRSPRCDCAGDFHKKIGLFCCRGCPAGHYLKAPCTEPCGNSTCLVCPQDTFLAWENHHNSECARCQACDEQASQVALENCSAVADTRCGCKPGWFVECQVSQCVSSSPFYCQPCLDCGALHRHTRLLCSRRDTDCGTCLPGFYEHGDGCVSCPTSTLGSCPERCAAVCGWRQ
As for B1, in the assay with human TL1A, the binding result is “binds”. Also, the Kd is ~430 nM in assay [1] and ~440 nM in assay [2].

B2: de-glycosylated human DR3.Fc (PNGase F treated) (Fc fusion, UniProt Q93038 25-199, looked up)
chain: QGGTRSPRCDCAGDFHKKIGLFCCRGCPAGHYLKAPCTEPCGNSTCLVCPQDTFLAWENHHNSECARCQACDEQASQVALENCSAVADTRCGCKPGWFVECQVSQCVSSSPFYCQPCLDCGALHRHTRLLCSRRDTDCGTCLPGFYEHGDGCVSCPTSTLGSCPERCAAVCGWRQ
modifications: N-linked sugars removed by PNGase F
As for B2, the binding result with human TL1A is recorded as “binds”.
